Positions count from the first letter of the chain named.
Experiments:
[1] = biological target: ACP (Escherichia coli) (UniProt P0A6A8); conditions: cited from earlier work
[2] = biological target: T1, His6-LpxD (wild-type E. coli LpxD acyltransferase) (E. coli, UniProt P21645 3-341); experiment: crystal structure
T1 sequence: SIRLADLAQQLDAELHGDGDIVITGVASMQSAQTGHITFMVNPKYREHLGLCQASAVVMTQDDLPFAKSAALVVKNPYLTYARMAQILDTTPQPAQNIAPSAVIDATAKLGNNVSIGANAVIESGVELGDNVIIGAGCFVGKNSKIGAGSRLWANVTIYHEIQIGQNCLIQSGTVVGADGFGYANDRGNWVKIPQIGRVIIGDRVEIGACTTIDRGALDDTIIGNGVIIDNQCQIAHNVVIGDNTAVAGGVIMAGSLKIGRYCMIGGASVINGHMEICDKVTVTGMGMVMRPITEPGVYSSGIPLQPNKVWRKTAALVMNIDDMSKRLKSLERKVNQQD

[3] = biological target: T2, His239Ala His6-LpxD (catalytically inactive) (E. coli, UniProt P21645 3-341, His239Ala); experiment: crystal structure
T2 sequence: T1 sequence with H237A

In the case of LpxD (from UniProt P21645), the Kd [1] is listed as 59 nM.

B1: holo-ACP (E. coli acyl-carrier-protein with 4'-phosphopantetheine) (natural protein)
chain: SHMSTIEERVKKIIGEQLGVKQEEVTNNASFVEDLGADSLDTVELVMALEEEFDTEIPDEEAEKITTVQAAIDYINGHQA
modifications: 4'-phosphopantetheine (4'-PPT) attached to Ser36, free terminal thiol
B1: binds [2].

B2: R-3-hydroxymyristoyl-ACP (intact-acyl-ACP) (natural protein, E. coli)
chain: B1 chain
modifications: 4'-phosphopantetheine attached to Ser36, carrying R-3-hydroxymyristoyl (β-OH-C14) in thioester linkage
With B2 the “stoichiometry N” value [3] was 3 ACP per LpxD trimer.

From publication PMC3947097 (Nature, 2013)
